From PMC11084278 (International Journal of Molecular Sciences, 2024)
Marks after values point to notes of the source that are not given here.

What was measured:
[1] = molecular target: T1, NLuc-CXCR4 (Homo sapiens, UniProt P61073); experiment: NanoBRET saturation binding to HEK293T membranes expressing NLuc-CXCR4; parameters: 5HT3a signal peptide (N); host or cells: HEK293T, transient; membrane preparation; details: non-specific binding with 10 µM IT1t, mean ± SD
Procedure: (§1) HEK293T cells (2 × 10^6) were seeded in 10 cm^2 culture dishes. […] After two days, the cells were collected in PBS and centrifuged at 2700 rpm at 4 °C. Next, the cell pellet was resuspended in ice-cold membrane buffer (15 mM of Tris, 0.3 mM of EDTA, 2 mM of MgCl2, pH 7.4 at 4 °C) and homogenized by plunging the pestle using 10 strokes at 1100 rpm. The cell homogenates were exposed to two freeze and thaw cycles using liquid nitrogen and were centrifuged at 25,000 rpm. The pellet was resuspended in Tris-sucrose buffer (20 mM of Tris, 250 mM of Sucrose, pH 7.4 at 4 °C). Finally, cell membranes were homogenized using a 23-gauge needle, followed by snap-freezing with liquid nitrogen and then stored at −80 °C.
(§2) For saturation binding experiments, the KD was obtained using one-site total and non-specific binding. For binding experiments, pIC50 values were obtained using a one-site pIC50 model. The equilibrium dissociation constants (Ki) of unlabeled ligands were subsequently calculated using the Cheng−Prusoff equation. (1) K1=IC50/1+L/KD where [L] is the concentration of the labeled ligand and KD is the equilibrium dissociation constant of the labeled ligand.

[2] = molecular target: CXCR4 (Homo sapiens, UniProt P61073); experiment: CXCR4-mediated inhibition of isoprenaline-induced intracellular cAMP (FRET-based EPAC sensor) in HEK293 cells; assay type: cell-based; details: HEK293 cells stably expressing CXCR4 and EPAC sensor; 100 nM isoprenaline; mean ± SD
Procedure: Human embryonic kidney 293 cells stably co-expressing CXCR4 and the FRET-based EPAC sensor with mCerulean and mCitrine as a FRET pair were kindly provided by Dr. M. Zimmermann (Interax Biotech, Zurich, Switzerland), and were cultured in DMEM supplemented with 10% FBS and penicillin ([…]), streptomycin ([…]), zeocin (0.06 mg/mL) and G418 (0.6 mg/mL) at 37 °C with 5% CO2.
HEK293 cells stably expressing CXCR4 and a FRET-based EPAC sensor were seeded into a 96-well black plate (0.5 × 10^6/well). […] Fluorescence was measured using the following parameters: excitation at 430–15 nm, and emission at 530–20 and 480–20 nm using the CLARIOstar Plus (BMG Labtech, Ortenberg, Germany). The FRET ratio was calculated by dividing the signal of the acceptor at 530 nm by the donor signal at […].

[3] = molecular target: T2, NLuc-CXCR3 (Homo sapiens, UniProt P49682); experiment: NanoBRET competition binding versus CXCL10-AZD488 on NLuc-CXCR3 membranes only (520 nm)
T2 construct: 5HT3a signal peptide (N); expressed in transfected cells; host or cells: HEK293T, transient; membrane preparation
T2 sequence (P49682 2-368 limits assumed): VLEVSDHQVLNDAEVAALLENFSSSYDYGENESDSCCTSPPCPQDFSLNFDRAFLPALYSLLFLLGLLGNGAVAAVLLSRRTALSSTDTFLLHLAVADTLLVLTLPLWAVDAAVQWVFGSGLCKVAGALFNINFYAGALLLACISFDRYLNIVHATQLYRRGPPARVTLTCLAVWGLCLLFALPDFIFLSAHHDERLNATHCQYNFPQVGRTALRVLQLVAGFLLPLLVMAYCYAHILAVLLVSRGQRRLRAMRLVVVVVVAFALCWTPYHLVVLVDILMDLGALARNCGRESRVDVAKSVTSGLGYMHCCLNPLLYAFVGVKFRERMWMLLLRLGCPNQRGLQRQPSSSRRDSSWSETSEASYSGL
Procedure: (§3) HEK293T cells (2 × 10^6) were seeded in 10 cm^2 culture dishes. After 24 h, the cells were transfected with 0.25 µg of plasmid DNA encoding human NLuc-ACKR3, NLuc-CXCR4 or NLuc-CXCR3, and 4.75 µg of pcDEF3 plasmid DNA using 30 µg of linear PEI. After two days, the cells were collected in PBS and centrifuged at 2700 rpm at 4 °C. Next, the cell pellet was resuspended in ice-cold membrane buffer (15 mM of Tris, 0.3 mM of EDTA, 2 mM of MgCl2, pH 7.4 at 4 °C) and homogenized by plunging the pestle using 10 strokes at 1100 rpm. The cell homogenates were exposed to two freeze and thaw cycles using liquid nitrogen and were centrifuged at 25,000 rpm. The pellet was resuspended in Tris-sucrose buffer (20 mM of Tris, 250 mM of Sucrose, pH 7.4 at 4 °C). Finally, cell membranes were homogenized using a 23-gauge needle, followed by snap-freezing with liquid nitrogen and then stored at −80 °C.
(§4) NanoBRET was measured after 1 h of incubation at room temperature, as described above.
as §2

[4] = molecular target: T2, NLuc-CXCR3; experiment: Multiplex NanoBRET binding, mixed NLuc-CXCR3 and NLuc-CXCR4 membranes, read at 520 nm (CXCL10-AZD488); details: mixed (1:1) NLuc-CXCR3 and NLuc-CXCR4 membranes; both CXCL10-AZD488 and CXCL12-AZD647, 10 nM each
Procedure: as §3, §4
as §2, with “(1) K1=IC50/1+L/KD where [L] is the concentration of the labeled ligand and KD is the equilibrium dissociation constant of the labeled ligand.” left out

[5] = molecular target: T1, NLuc-CXCR4; experiment: Multiplex NanoBRET binding, mixed NLuc-CXCR3 and NLuc-CXCR4 membranes, read at 640 nm (CXCL12-AZD647); parameters: 5HT3a signal peptide (N); host or cells: HEK293T, transient; membrane preparation; details: mixed (1:1) NLuc-CXCR3 and NLuc-CXCR4 membranes; both CXCL10-AZD488 and CXCL12-AZD647, 10 nM each
Procedure: as §1, §2

[6] = molecular target: NLuc-ACKR3 (Homo sapiens, UniProt P25106); experiment: NanoBRET competition binding versus AZDye-labeled CXCL12 on NLuc-ACKR3 membranes; parameters: 5HT3a signal peptide (N); host or cells: HEK293T, transient; membrane preparation
Procedure: as §1
All experiments were analyzed using Graphpad Prism 9.0. For binding experiments, pIC50 values were obtained using a one-site pIC50 model using global fitting with shared non-specific binding values.
as §2

[7] = molecular target: HA-tagged ACKR3 C-terminally fused to SmBit (UniProt P25106)
[8] = molecular target: T1, NLuc-CXCR4
[9] = molecular target: T1, NLuc-CXCR4; experiment: FRET or BRET; NanoBRET competition binding against CXCL12-AZD594 (0.3 nM on NLuc-ACKR3, 10 nM on NLuc-CXCR4 HEK293T membranes) with increasing unlabeled ligand; HBSS with 0.2% BSA; 1 h at room temperature; Ki by Cheng-Prusoff
[10] = molecular target: T1, NLuc-CXCR4; experiment: FRET or BRET; NanoBRET competition binding against CXCL12-AZD488 (0.3 nM on NLuc-ACKR3, 10 nM on NLuc-CXCR4 HEK293T membranes) with increasing unlabeled ligand; HBSS with 0.2% BSA; 1 h at room temperature; Ki by Cheng-Prusoff
[11] = molecular target: T1, NLuc-CXCR4; experiment: FRET or BRET; NanoBRET competition binding against CXCL12-AZD647 (0.3 nM on NLuc-ACKR3, 10 nM on NLuc-CXCR4 HEK293T membranes) with increasing unlabeled ligand; HBSS with 0.2% BSA; 1 h at room temperature; Ki by Cheng-Prusoff
[12] = molecular target: T1, NLuc-CXCR4; experiment: FRET or BRET; NanoBRET competition binding against CXCL12-AZD546 (0.3 nM on NLuc-ACKR3, 10 nM on NLuc-CXCR4 HEK293T membranes) with increasing unlabeled ligand; HBSS with 0.2% BSA; 1 h at room temperature; Ki by Cheng-Prusoff
[13] = molecular target: T3, NLuc-ACKR3 (human, UniProt P25106 1-362); experiment: FRET or BRET; NanoBRET competition binding against CXCL12-AZD594 (0.3 nM on NLuc-ACKR3, 10 nM on NLuc-CXCR4 HEK293T membranes) with increasing unlabeled ligand; HBSS with 0.2% BSA; 1 h at room temperature; Ki by Cheng-Prusoff; details: one partner purified
T3 construct: ACKR3 (CXCR7), human; NLuc is preceded by the 5HT3a signal peptide and fused via a Gly-Ser linker (BamHI site) to ACKR3, in pcDNA3.1; also called CXCR7; source: HEK293T, transiently transfected, membrane preparation; not shown: NLuc, N-terminal, kept

[14] = molecular target: T3, NLuc-ACKR3; experiment: FRET or BRET; NanoBRET competition binding against CXCL12-AZD647 (0.3 nM on NLuc-ACKR3, 10 nM on NLuc-CXCR4 HEK293T membranes) with increasing unlabeled ligand; HBSS with 0.2% BSA; 1 h at room temperature; Ki by Cheng-Prusoff; details: one partner purified
[15] = molecular target: T3, NLuc-ACKR3; experiment: FRET or BRET; NanoBRET competition binding against CXCL12-AZD546 (0.3 nM on NLuc-ACKR3, 10 nM on NLuc-CXCR4 HEK293T membranes) with increasing unlabeled ligand; HBSS with 0.2% BSA; 1 h at room temperature; Ki by Cheng-Prusoff; details: one partner purified
[16] = molecular target: T3, NLuc-ACKR3; experiment: FRET or BRET; NanoBRET competition binding against CXCL12-AZD488 (0.3 nM on NLuc-ACKR3, 10 nM on NLuc-CXCR4 HEK293T membranes) with increasing unlabeled ligand; HBSS with 0.2% BSA; 1 h at room temperature; Ki by Cheng-Prusoff; details: one partner purified
[17] = 0.3 nM probe, Cheng-Prusoff, mean ± SD

CXCL12-AZD594: CXCL12 tagged at the C-terminus with fluorescent AZDye 594 by click chemistry
pKD for CXCR4 [1]: 7.6 ± 0.1 | cAMP by CXCR4 (pEC50) [2]: 8.9 ± 0.2

CCNC(=O)c1cnc(N2CCN(C3CCN(Cc4ccc(Cl)cc4)CC3)[C@@H](CC)C2)c(Cl)c1 [VUF11211]
pKi, CXCR3 Only at 520 nm ([3]; 10 nM CXCL10-AZD488, NLuc-CXCR3 membranes only): 8.8 ± 0.2 | fold higher than the Ki from competition binding with [125I]-CXCL11 ([3]; comparison with ref 23): 10 fold | fold lower than the Ki from competition binding with [3H]-VUF11211 ([3]; comparison with ref 23): 1.5 fold | pKi, Multiplex at 520 nm [4]: 8.8 ± 0.1 | pKi, Multiplex at 640 nm [5]: no clear competition binding curve was detected

COc1cc(C(=O)N(CCC2CCCN2C)CC(C)=Cc2ccccc2F)cc(OC)c1OC (centres unmarked) [VUF15485]
Binding affinity (pKi) for NLuc-ACKR3, probe CXCL12-AZD488 [6, 17]: 7.9 ± 0.1 ^b | Binding affinity (pKi) for NLuc-ACKR3, probe CXCL12-AZD546 [6, 17]: 7.9 ± 0.1 | Binding affinity (pKi) for NLuc-ACKR3, probe CXCL12-AZD594 [6, 17]: 8.1 ± 0.2 | Binding affinity (pKi) for NLuc-ACKR3, probe CXCL12-AZD647 [6, 17]: 8.2 ± 0.1 | fold lower affinity for ACKR3 when tested in competition with CXCL12-AZD488 ([6]; compared with the other three probes): 5 fold

CXCL12-AZD546: CXCL12 tagged at the C-terminus with fluorescent AZDye 546 by click chemistry
pKD for CXCR4 [1]: 8.0 ± 0.0 | cAMP by CXCR4 (pEC50) [2]: 8.6 ± 0.3

Human recombinant CXCL12 (unlabeled) (from UniProt P48061 22-93) (ligand)
pEC50 of β-arrestin2 recruitment to ACKR3 (NanoBiT complementation, HEK293T cells) [7]: 8 | pEC50 of inhibition of isoprenaline-induced cAMP (FRET-based EPAC sensor) in HEK293 cells stably expressing CXCR4 (not the NLuc fusion) [8]: 9.7 | pKi [9]: 8.2 | pKi [10]: 8.4 | pKi [11]: 8.4 | pKi [12]: 9

CXCL12-AZD647: CXCL12 tagged at the C-terminus with fluorescent AZDye 647 by click chemistry
pKD for CXCR4 [1]: 7.9 ± 0.1

CC1(C)CN2C(CSC(=NC3CCCCC3)NC3CCCCC3)=CSC2=N1 [IT1t]
pKi, Multiplex at 520 nm [4]: no clear competition binding curve was detected

B1: CXCL11 (unlabeled) (ligand, UniProt O14625 22-94, looked up)
chain: FPMFKRGRCLCIGPGVKAVKVADIEKASIMYPSNNCDKIEVIITLKENKGQRCLNPKSKQARLIIKKVERKNF
notes: CXCL11, unlabeled chemokine
pKi [13]: 9.5 | pKi [14]: 9.2 | pKi [15]: 9.4 | pKi [16]: 9.4
